Data reported in patent publication US20220233746A1, “PHARMACEUTICAL COMPOSITION FOR JOINT DISEASE TREATMENT AND METHOD FOR PRODUCING SAME” (EDUCATIONAL FOUNDATION OF OSAKA MEDICAL AND PHARMACEUTICAL …, priority 2019, published 2022).

Legend:
[1] = Measurement of mechanical strength of peptide hydrogel (rheology measurement, rheometer); type: physicochemical
Protocol: Next, an equal amount (100 μL) of 2×PBS, 4×PBS, 6×PBS or 10×PBS was added to the aqueous peptide solution and mixed. Therefore, the final concentration of PBS in the mixture was 1×PBS, 2×PBS, 3×PBS, and 5×PBS, respectively. Thereafter, it was allowed to stand still in a cool and dark place for one day. As a result, the peptide in the aqueous peptide solution self-assembled by the action of the salt in PBS, and a peptide hydrogel was obtained. In addition, as a comparative example, Eagle's minimum essential medium (EMEM), which contains salts necessary for gel formation but is considered to be toxic in vivo, or 10 wt % NaCl aqueous solution (final concentration is 5 wt %) was added in an equal amount to the peptide aqueous solution and mixed, and the mixture was allowed to stand still in a cool and dark place for 1 day. A peptide hydrogel was also obtained in this comparative example.
[Example 2: Measurement of mechanical strength of peptide hydrogel] In order to evaluate the mechanical strength of each peptide hydrogel obtained as described above, a rheometer (HAAKE viscosity/viscoelasticity measuring device (HAAKE MARS40) manufactured by Thermo Scientific) was used for each peptide hydrogel and the rheology thereof was measured.

rabbit meniscus defect = assay: Rabbit meniscus defect model, transplantation of peptide hydrogel into the defect; type: in vivo, Japanese white rabbits
Protocol: First, 20 male Japanese white rabbits weighing 3.0 to 3.4 kg at 6 months of age were prepared, and a cylindrical defect with a diameter of 2.0 mm was prepared in the medial anterior segment of the meniscus of both knees (FIG. 2A). Further, a peptide hydrogel produced by the above method using a peptide of KI24RGDS and 5×PBS was prepared (FIG. 2B), and the peptide hydrogel was filled in the defect. The group in which the defect was filled with peptide hydrogel was designated as the KI24RGDS group, and the group in which no treatment was applied to the defect was designated as the control group. After transplantation, tissue evaluation was performed on the knees of each group using hematoxylin/eosin staining (HE staining) or safranin O staining. Tissue evaluation was performed at 2, 4, 8 and 12 weeks after transplantation, and 5 animals (10 knees) were evaluated at each evaluation period. In addition, the tissue evaluation used Ishida score and Quantitative Analysis of the Occupation Ratio of Tissue Regeneration (R/D ratio). In the evaluation based on Ishida score, scores were given from the three viewpoints shown in Table 1 below, and the degree of tissue repair was evaluated by the total. On the other hand, in the evaluation based on the R/D ratio, the degree of tissue repair was evaluated by analyzing the area of the entire defect (D) and the area of the repaired tissue (R) and calculating the ratio of R/D using ImageJ software as shown in FIG. 3.

[2] = hydrogel made with 5×PBS filled in 2.0 mm meniscus defect, 2, 4, 8 and 12 weeks after transplantation, versus untreated control group

IKIKIKIKIKRGDSKIKIKIKIKI (Peputide including strand and turn) [KI24RGDS, self-assembling β-hairpin peptide tested as a peptide hydrogel formed by adding PBS, NaCl solution or EMEM to its aqueous solution]
difference between the storage elastic modulus G and the loss elastic modulus G″ ([1]; comparative hydrogel produced with 5 wt % NaCl aqueous solution (final concentration)): approximately 3750
difference between the storage elastic modulus G and the loss elastic modulus G″ ([1]; hydrogel produced with 3×PBS (final concentration)): approximately 3950
loss elastic modulus G″ of the peptide hydrogel ([1]; hydrogel produced with 5×PBS (final concentration)): about 800
storage elastic modulus G of the peptide hydrogel ([1]; hydrogel produced with 5×PBS (final concentration), 6% aqueous peptide solution mixed in equal amount): about 15,000
macroscopic findings of the meniscus defect (rabbit meniscus defect; 2, 4, 8 and 12 weeks after transplantation (FIG. 4)): became smaller and repaired
safranin O-stained meniscus tissue findings (rabbit meniscus defect; 2, 4, 8 and 12 weeks after transplantation (FIG. 5)): cells gathered in the defect and the tissue was repaired
Ishida score (rabbit meniscus defect; [2]): higher in the KI24RGDS group than in the control group
R/D ratio (Occupation Ratio of Tissue Regeneration) (rabbit meniscus defect; [2]): higher in the KI24RGDS group than in the control group
